Laboratory results as given in US20260209789A1 (WESTLAKE UNIVERSITY, published 2026).

Columns and labels:
endogenous eIF4G = endogenous eIF4G (human (endogenous in HEK-293 cells), UniProt Q04637 1-1599); experiment: anti-Flag co-IP from HEK-293 lysate, Western blot with anti-eIF4G (FIG. 6A)
BCR-ABL = molecular target: T1, BCR-ABL
T1 construct: Overexpressed in HEK-293 cells; also called BCR-ABL oncoprotein; BCR-ABL fusion protein

endogenous eIF4E = endogenous eIF4E (human (endogenous in HEK-293 cells), UniProt P06730 2-217); experiment: anti-Flag co-IP from HEK-293 lysate, Western blot with anti-eIF4E (FIG. 6A)
Sequence of endogenous eIF4E (P06730 2-217 limits assumed): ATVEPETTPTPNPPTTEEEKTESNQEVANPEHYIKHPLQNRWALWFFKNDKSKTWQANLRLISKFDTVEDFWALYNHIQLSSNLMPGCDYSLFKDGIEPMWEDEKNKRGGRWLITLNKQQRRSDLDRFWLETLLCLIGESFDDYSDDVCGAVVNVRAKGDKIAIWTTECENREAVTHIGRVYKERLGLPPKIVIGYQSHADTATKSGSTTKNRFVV

Sequence of endogenous eIF4G (Q04637 whole entry): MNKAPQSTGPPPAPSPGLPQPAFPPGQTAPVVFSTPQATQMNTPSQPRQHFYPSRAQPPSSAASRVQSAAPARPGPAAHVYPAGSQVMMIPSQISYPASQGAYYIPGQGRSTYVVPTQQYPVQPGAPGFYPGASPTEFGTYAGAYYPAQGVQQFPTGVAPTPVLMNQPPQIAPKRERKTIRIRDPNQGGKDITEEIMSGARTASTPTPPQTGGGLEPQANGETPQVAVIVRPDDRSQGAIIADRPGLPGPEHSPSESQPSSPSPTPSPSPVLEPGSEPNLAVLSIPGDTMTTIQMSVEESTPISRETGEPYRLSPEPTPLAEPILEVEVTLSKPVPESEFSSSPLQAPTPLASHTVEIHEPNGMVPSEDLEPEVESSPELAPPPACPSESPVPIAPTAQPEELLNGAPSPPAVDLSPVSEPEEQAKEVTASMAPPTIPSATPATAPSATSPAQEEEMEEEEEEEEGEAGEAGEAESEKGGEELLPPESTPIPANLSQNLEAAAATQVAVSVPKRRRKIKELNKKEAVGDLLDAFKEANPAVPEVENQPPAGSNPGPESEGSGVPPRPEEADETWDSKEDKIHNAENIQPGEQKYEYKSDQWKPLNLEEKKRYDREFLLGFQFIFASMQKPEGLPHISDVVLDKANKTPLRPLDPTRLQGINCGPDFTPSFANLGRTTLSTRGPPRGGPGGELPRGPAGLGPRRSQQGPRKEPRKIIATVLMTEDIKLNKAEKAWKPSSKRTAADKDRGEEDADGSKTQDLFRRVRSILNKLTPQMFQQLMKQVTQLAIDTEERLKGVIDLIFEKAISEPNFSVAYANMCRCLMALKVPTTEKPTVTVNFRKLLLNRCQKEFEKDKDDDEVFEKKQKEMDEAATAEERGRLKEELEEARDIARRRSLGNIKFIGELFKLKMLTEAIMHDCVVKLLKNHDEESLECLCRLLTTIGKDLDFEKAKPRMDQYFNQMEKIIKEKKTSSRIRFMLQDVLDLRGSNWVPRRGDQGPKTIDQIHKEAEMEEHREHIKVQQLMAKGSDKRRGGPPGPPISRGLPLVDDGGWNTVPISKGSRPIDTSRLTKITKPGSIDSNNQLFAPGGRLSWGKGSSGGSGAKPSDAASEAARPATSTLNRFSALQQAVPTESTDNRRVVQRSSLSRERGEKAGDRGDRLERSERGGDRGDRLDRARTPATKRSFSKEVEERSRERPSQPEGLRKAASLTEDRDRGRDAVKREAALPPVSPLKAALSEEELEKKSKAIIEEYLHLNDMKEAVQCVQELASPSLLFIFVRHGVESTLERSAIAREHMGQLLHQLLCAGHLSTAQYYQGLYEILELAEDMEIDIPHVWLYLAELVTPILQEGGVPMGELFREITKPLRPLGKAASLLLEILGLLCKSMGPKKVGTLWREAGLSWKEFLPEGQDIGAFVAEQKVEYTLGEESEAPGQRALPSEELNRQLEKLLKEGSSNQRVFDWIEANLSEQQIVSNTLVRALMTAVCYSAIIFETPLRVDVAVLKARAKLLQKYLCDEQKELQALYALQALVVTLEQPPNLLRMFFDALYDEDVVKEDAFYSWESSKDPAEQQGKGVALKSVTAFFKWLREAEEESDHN

B1: 3xFLAG-MCP-NSP3 (other)
chain: MDYKDHDGDYKDHDIDYKDDDDKASNFTQFVLVDNGGTGDVTVAPSNFANGVAEWISSNSRSQAYKVTCSVRQSSAQKRKYTIKVEVPKVATQTVGGVELPVAAWRSYLNMELTIPIFATNSDCELIVKAMQGLLKDGNPIPSAIAANSGIYASGSGGGGDVMLKMESTQQMASSIINTSFEAAVVAATSTLELMGIQYDYNEVYTRVKSKFDYVMDDSGVKNNLLGKAATIDQALNGKFGSAARNRNWMADTRTTARLDEDVNKLRMMLSSKGIDQKMRVLNACFNVKRVPGKSSSIIKCTRLMRDKIERGEVEVDDSFVEEKMEVDTIDWKSRYEQLEKRFESLKQRVNEKYTSWVQKAKKVNENMYSLQNVISQQQSQIADLQNYCNKLEVDLQNKISSLVSSVEWYLKSMELPDEIKTDIEQQLNSIDVINPINAIDDFESLIRNIILDYDRIFLMFKGLMRQCNYEYTYE
notes: also called 3×FLAG-tagged MCP-NSP3; pSL1083
Does B1 bind (endogenous eIF4G)?
Result: binds

B2: 3xHA-CCmut3-NSP3 (designed binder)
chain: MVDPVGFAEAWKAQFPDSEPPRMELRSVGDIEQELERAEARIRRNEQRVNQERFRMIYLETLLAKEKKSYDRASGSGGGGDVASMLKMESTQQMASSIINTSFEAAVVAATSTLELMGIQYDYNEVYTRVKSKFDYVMDDSGVKNNLLGKAATIDQALNGKFGSAARNRNWMADTRTTARLDEDVNKLRMMLSSKGIDQKMRVLNACFNVKRVPGKSSSIIKCTRLMRDKIERGEVEVDDSFVEEKMEVDTIDWKSRYEQLEKRFESLKQRVNEKYTSWVQKAKKVNENMYSLQNVISQQQSQIADLQNYCNKLEVDLQNKISSLVSSVEWYLKSMELPDEIKTDIEQQLNSIDVINPINAIDDFESLIRNIILDYDRIFLMFKGLMRQCNYEYTYEYPYDVPDYAYPYDVPDYAYPYDVPDYA
notes: also called 3×HA-tagged CCmut3-NSP3; pSL1102
Does B2 bind (BCR-ABL)?
Result: binds

B3: 3xFLAG-MCP-ABI(iDab) (VHH)
chain: MDYKDHDGDYKDHDIDYKDDDDKASNFTQFVLVDNGGTGDVTVAPSNFANGVAEWISSNSRSQAYKVTCSVRQSSAQKRKYTIKVEVPKVATQTVGGVELPVAAWRSYLNMELTIPIFATNSDCELIVKAMQGLLKDGNPIPSAIAANSGIYASGSGGGGDVGSEVQLLESGGGLVQPGGSLRLSCAASGFTFSTFSMNWVRQAPGKGLEWVSYISKCGHVIYYADSVKGRFTISRDNSKNTLYLQMNSLRAEDTAVYYCARGPLWSFVRMSFDYWGQGTLVTVSSAS
notes: also called 3×FLAG-tagged MCP-ABI (iDab)3; 3xFLAG-MCP-(ABI(iDab))3
Does B3 bind (BCR-ABL)?
Result: binds

B4: 3xFLAG-MCP (other)
chain: MDYKDHDGDYKDHDIDYKDDDDKASNFTQFVLVDNGGTGDVTVAPSNFANGVAEWISSNSRSQAYKVTCSVRQSSAQKRKYTIKVEVPKVATQTVGGVELPVAAWRSYLNMELTIPIFATNSDCELIVKAMQGLLKDGNPIPSAIAANSGIY
notes: also called 3×FLAG-tagged MCP; pSL1084
Which results are given for B4?
binding result (endogenous eIF4E): no binding; binding result (endogenous eIF4G): no binding
